Experimental findings from patent US20140072577A1 (AstraZeneca / MedImmune, published 2014) are described below.

The test has as its target T1, BSA (bovine, UniProt P02769).
T1 construct: also called bovine serum albumin
Put plainly: ELISA, BSA as control antigen; detection with anti-human IgG HRP.

T1 sequence (P02769 25-607 limits assumed): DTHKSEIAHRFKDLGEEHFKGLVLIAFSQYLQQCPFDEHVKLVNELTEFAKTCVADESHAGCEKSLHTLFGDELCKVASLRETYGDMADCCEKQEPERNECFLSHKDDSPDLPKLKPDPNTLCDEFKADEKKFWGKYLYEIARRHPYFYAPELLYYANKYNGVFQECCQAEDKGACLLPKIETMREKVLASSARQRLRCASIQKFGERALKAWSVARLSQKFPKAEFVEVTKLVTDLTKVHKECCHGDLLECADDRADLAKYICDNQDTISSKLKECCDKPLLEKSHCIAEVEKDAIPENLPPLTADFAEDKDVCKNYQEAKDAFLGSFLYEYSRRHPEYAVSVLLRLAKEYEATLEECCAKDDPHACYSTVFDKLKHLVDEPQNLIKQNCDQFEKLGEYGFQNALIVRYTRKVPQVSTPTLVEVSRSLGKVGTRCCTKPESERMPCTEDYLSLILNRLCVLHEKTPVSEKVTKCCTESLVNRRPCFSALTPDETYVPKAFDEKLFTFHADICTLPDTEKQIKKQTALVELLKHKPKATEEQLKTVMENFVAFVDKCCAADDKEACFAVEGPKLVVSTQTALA

B1: LC10 YTE (antibody corresponding to mAb LC10 containing an Fc variant (antibody, V domains shown)
VH: EVQLVESGGGLVQPGGSLRLSCAASGFTFSSHDMHWVRQATGKGLEWVSGIGTAGDTYYPDSVKGRFTISRENAKNSLYLQMNSLRAGDTAVYYCARDRYSPTGHYYGMDVWGQGTTVTVSS
VL: DIQMTQSPSTLSASVGDRVTITCRASQSISSWLAWYQQKPGKAPKLLIYKASSLESGVPSRFSGSGSGTEFTLTISSLQPDDFATYYCKQYADYWTFGQGTKVEIKR
notes: also called LC10-IgG1-YTE; MEDI4893
Turning to B1, the binding result is on record as “no binding”.
